US20260265379A1

B1: bsAb041 (bispecific antibody, not shown: small tags and cut ends; a dimerising Fc or GST)
heavy (part 1 of 2): EVQLVESGGGLVQPGGSLRLSCAASGFTFSRYWMSWVRQAPGKGLEWVANIKQDGSEKYYVDSVKGRFTISRDNAKNSLYLQMNSLRAEDTAVYYCAREGGWFGELAFDYWGQGTLVTVSS
heavy (part 2 of 2): GGGGSGGGGSGGGGSGGGGSDIQMTQSPSSLSASVGDRVTITCHASQNINVWLSWYQQKPGKAPKLLIYKASNLHTGVPSRFTGSGSGTDFTFTISSLQPEDIATYYCQQGQTYPYTFGQGTKLEIKGGGGSGGGGSGGGGSGGGGSQVQLVQSGAEVKKPGASVKLSCKASGYIFTRYYMYWVKQRPGQGLEWIGEINPNNGGTKFNEKFKNRATLTVDKSISTAYMELSRLRSDDTAVYYCSREDDYDGTPFAMDYWGQGTLVTVSS
heavy: B1 heavy (part 2 of 2)
light: EIVLTQSPGTLSLSPGERATLSCRASQRVSSSYLAWYQQKPGQAPRLLIYDASSRATGIPDRFSGSGSGTDFTLTISRLEPEDFAVYYCQQYGSLPWTFGQGTKVEIKRTVAAPSVFIFPPSDEQLKSGTASVVCLLNNFYPREAKVQWKVDNALQSGNSQESVTEQDSKDSTYSLSSTLTLSKADYEKHKVYACEVTHQGLSSPVTKSFNRGEC
B2: bsAb054 (bispecific antibody, not shown: small tags and cut ends)
heavy (part 1 of 2): B1 heavy (part 1 of 2)
heavy (part 2 of 2): GGGGSGGGGSGGGGSGGGGSQVQLVQSGAEVKKPGASVKLSCKASGYIFTRYYMYWVKQRPGQGLEWIGEINPNNGGTKFNEKFKNRATLTVDKSISTAYMELSRLRSDDTAVYYCSREDDYDGTPFAMDYWGQGTLVTVSSGGGGSGGGGSGGGGSGGGGSDIQMTQSPSSLSASVGDRVTITCHASQNINVWLSWYQQKPGKAPKLLIYKASNLHTGVPSRFTGSGSGTDFTFTISSLQPEDIATYYCQQGQTYPYTFGQGTKLEIK
heavy: B1 heavy (part 1 of 2)
light: B1 light
B3: bsAb069 (bispecific antibody, not shown: small tags and cut ends; a dimerising Fc or GST)
heavy 1: B1 heavy (part 1 of 2)
heavy 2: DIQMTQSPSSLSASVGDRVTITCHASQNINVWLSWYQQKPGKAPKLLIYKASNLHTGVPSRFTGSGSGTDFTFTISSLQPEDIATYYCQQGQTYPYTFGQGTKLEIKGGGGSGGGGSGGGGSGGGGSQVQLVQSGAEVKKPGASVKLSCKASGYIFTRYYMYWVKQRPGQGLEWIGEINPNNGGTKFNEKFKNRATLTVDKSISTAYMELSRLRSDDTAVYYCSREDDYDGTPFAMDYWGQGTLVTVSSGGGGSGGGGSGGGGSGGGGS
light: EIVLTQSPGTLSLSPGERATLSCRASQRVSSSYLAWYQQKPGQAPRLLIYDASSRATGIPDRFSGSGSGTDFTLTISRLEPEDFAVYYCQQYGSLPWTFGQGTKVEIKRTVAAPSVFIFPPSDEQLKSGTASVVCLLNNFYPREAKVQWKVDNALQSGNSQESVTEQDSKDSTYSLSSTLTLSKADYEKHKVYACEVTHQGLSSPVTKSFNRGECGGGGSGGGGSGGGGSGGGGSQVQLVQSGAEVKKPGASVKLSCKASGYIFTRYYMYWVKQRPGQGLEWIGEINPNNGGTKFNEKFKNRATLTVDKSISTAYMELSRLRSDDTAVYYCSREDDYDGTPFAMDYWGQGTLVTVSSGGGGSGGGGSGGGGSGGGGSDIQMTQSPSSLSASVGDRVTITCHASQNINVWLSWYQQKPGKAPKLLIYKASNLHTGVPSRFTGSGSGTDFTFTISSLQPEDIATYYCQQGQTYPYTFGQGTKLEIK

target: BTN3A expressed at the cell surface (human), O00481; test: cell-based or functional assay
Sequence (O00481 30-513): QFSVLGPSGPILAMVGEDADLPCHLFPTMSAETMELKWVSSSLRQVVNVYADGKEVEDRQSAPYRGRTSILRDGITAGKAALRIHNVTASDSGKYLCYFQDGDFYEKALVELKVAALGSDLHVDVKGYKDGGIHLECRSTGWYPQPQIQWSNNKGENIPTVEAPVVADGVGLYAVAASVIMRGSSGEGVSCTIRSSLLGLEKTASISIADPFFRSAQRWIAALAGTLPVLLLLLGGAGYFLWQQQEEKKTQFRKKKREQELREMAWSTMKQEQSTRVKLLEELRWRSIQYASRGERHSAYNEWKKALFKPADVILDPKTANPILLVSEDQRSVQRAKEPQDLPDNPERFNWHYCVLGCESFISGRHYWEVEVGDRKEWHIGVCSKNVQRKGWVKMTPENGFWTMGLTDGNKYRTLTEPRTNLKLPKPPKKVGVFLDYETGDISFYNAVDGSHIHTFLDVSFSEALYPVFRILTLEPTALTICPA

Row | Jurkat-Vy9Vo2 TCR MOP activation at 0.5 nM (fold-change to medium) | Jurkat-Vy9Vo2 TCR MOP activation at 5 nM (fold-change to medium) | Binder
1 | 0.9 | 1 | B1
2 | 2.8 | 1 | B2
3 | 2.4 | 3.8 | B3
